According to patent publication US11504441B2, “Radiolabeled compounds targeting the prostate-specific membrane antigen” (PROVINCIAL HEALTH SERVICES AUTHORITY, priority 2019, dated 2022):

What was measured:
[1] = test system: PSMA-expressing LNCaP cancer xenografts; set-up: species or system mice; conditions: mouse, in vivo, iv
Protocol: (§1) Imaging and biodistribution experiments were performed using NODSCID 1 L2RγKO male mice. Mice were anesthetized by inhalation with 2% isoflurane in oxygen, and implanted subcutaneously with 1×10^7 LNCaP cells behind left shoulder. Mice were imaged or used in biodistribution studies when the tumor grew up to reach 5-8 mm in diameter during 5-6 weeks.
PET imaging experiments were conducted using Siemens Inveon micro PET/CT scanner. Each tumor bearing mouse was injected 6-8 MBq of Ga-68 labeled tracer through the tail vein under anesthesia (2% isoflurane in oxygen). The mice were allowed to recover and roam freely in their cage. After 50 min, the mice were sedated again with 2% isoflurane in oxygen inhalation and positioned in the scanner. […] Then, a 10-min static PET imaging was performed to determined uptake in tumor and other organs. […] The collected organs/tissues were weighed and counted using a Perkin Elmer (Waltham, Mass.) Wizard2 2480 gamma counter. The uptake in each organ/tissue was normalized to the injected dose using a standard curve, and expressed as the percentage of the injected dose per gram of tissue (% ID/g). […]
PET imaging experiments were conducted using Siemens Inveon micro PET/CT scanner. […] Then, a 10-min static PET imaging was performed to determined uptake in tumor and other organs.

[2] = test system: PSMA-expressing LNCaP cancer xenografts; conditions: mouse, in vivo
Protocol: (§2) LNCaP cell line was obtained from ATCC (LNCaP clone FGC, CRL-1740). […] Cells were cultured in PRM I 1640 medium supplemented with 10% FBS, penicillin (100 U/mL) and streptomycin (100 μg/mL) at 37° C. in a humidified incubator containing 5% CO2. Cells grown to 80-90% confluence were then washed with sterile phosphate-buffered saline (1× PBS pH 7.4) and collected by trypsinization. The collected cells concentration was counted with a Hausser Scientific (Horsham, Pa.) Hemacytometer.
as §1
(§3) PET imaging experiments were conducted using Siemens Inveon micro PET/CT scanner. Each tumor bearing mouse was injected 6-8 MBq of Ga-68 labeled tracer through the tail vein under anesthesia (2% isoflurane in oxygen). The mice were allowed to recover and roam freely in their cage. After 50 min, the mice were sedated again with 2% isoflurane in oxygen inhalation and positioned in the scanner. A 10-min CT scan was conducted first for localization and attenuation correction after segmentation for reconstructing the PET images. Then, a 10-min static PET imaging was performed to determined uptake in tumor and other organs. The mice were kept warm by a heating pad during acquisition. For biodistribution studies, the mice were injected with the radiotracer as described above. The mice was anesthetized with 2% isoflurane inhalation, and euthanized by CO2 inhalation. Blood was withdrawn immediately from the heart, and the organs/tissues of interest were collected. The collected organs/tissues were weighed and counted using a Perkin Elmer (Waltham, Mass.) Wizard2 2480 gamma counter. The uptake in each organ/tissue was normalized to the injected dose using a standard curve, and expressed as the percentage of the injected dose per gram of tissue (% ID/g).
(§4) LNCaP cell line was obtained from ATCC (LNCaP clone FGC, CRL-1740). […] Cells were cultured in PRM I 1640 medium supplemented with 10% FBS, penicillin (100 U/mL) and streptomycin (100 μg/mL) at 37° C. in a humidified incubator containing 5% CO2. Cells grown to 80-90% confluence were then washed with sterile phosphate-buffered saline (1× PBS pH 7.4), and collected by trypsinization. The collected cell concentration was counted with a Hausser Scientific (Horsham, Pa.) Hemacytometer.
(§5) Imaging and biodistribution experiments were performed using NODSCID 1L2RγKO male mice. Mice were anesthetized by inhalation with 2% isoflurane in oxygen, and implanted subcutaneously with 1×10^7 LNCaP cells behind left shoulder. Mice were imaged or used in biodistribution studies when the tumor grew up to reach 5-8 mm in diameter during 5-6 weeks.
(§6) PET imaging experiments were conducted using Siemens Inveon micro PET/CT scanner. Each tumor bearing mouse was injected 6-8 MBq of Ga-68 or F-18 labeled tracer through the tail vein under anesthesia (2% isoflurane in oxygen). The mice were allowed to recover and roam freely in their cage. After 50 min, the mice were sedated again with 2% isoflurane in oxygen inhalation and positioned in the scanner. A 10-min CT scan was conducted first for localization and attenuation correction after segmentation for reconstructing the PET images. Then, a 10-min static PET imaging was performed to determined uptake in tumor and other organs.
(§7) For biodistribution studies, the mice were injected with the radiotracer as described above.

in vivo = conditions: male, NODSCID 1L2RγKO, mouse, iv, total radioactivity
Protocol: as §2, §1, §3, §4, §5, §6, §7

## O=C(O)CCC[C@H](NC(=O)N[C@@H](CCCCNC(=O)[C@H](Cc1c2ccccc2cc2ccccc12)NC(=O)[C@H]1CC[C@H](CNC(=O)CN2CCN(CC(=O)O)CCN(CC(=O)O)CCN(CC(=O)O)CC2)CC1)C(=O)O)C(=O)O [68Ga-HTK03149, metal not drawn]
[1]
  activity in other organs in PET images: very low activity in other organs
[2]; male, NODSCID 1L2RγKO, iv, 1 h
  Adrenal glands uptake: 0.33 ± 0.11 % ID/g
  Blood uptake: 0.70 ± 0.17 % ID/g
  Kidneys uptake: 4.15 ± 1.46 % ID/g
  Liver uptake: 0.25 ± 0.06 % ID/g
  Lungs uptake: 0.53 ± 0.09 % ID/g
  Seminal uptake: 3.66 ± 5.36 % ID/g
  Spleen uptake: 0.27 ± 0.05 % ID/g
  Stomach uptake: 0.07 ± 0.01 % ID/g
  Tail uptake: 0.58 ± 0.14 % ID/g
  Thyroid uptake: 0.20 ± 0.05 % ID/g
  Tumor uptake: 19.1 ± 6.37 % ID/g
  Urine uptake: 319 ± 183 % ID/g
[2]
  Blood: Salivary ratio: 3.21 ± 0.64
In vivo; Adrenal glands uptake
  tissue uptake at 1 h: 0.46 ± 0.26 %ID/g
  tissue uptake at 3 h: 0.46 ± 0.16 %ID/g
In vivo; Blood uptake
  tissue uptake at 1 h: 0.96 ± 0.17 %ID/g
  tissue uptake at 3 h: 0.35 ± 0.14 %ID/g
In vivo; Bone uptake
  tissue uptake at 1 h: 0.1 ± 0.03 %ID/g
In vivo; Brain uptake
  tissue uptake at 1 h: 0.02 ± 0.01 %ID/g
  tissue uptake at 3 h: 0.02 ± 0.01 %ID/g
In vivo; Fat uptake
  tissue uptake at 1 h: 0.22 ± 0.16 %ID/g
  tissue uptake at 3 h: 0.16 ± 0.09 %ID/g
In vivo; Heart uptake
  tissue uptake at 1 h: 0.29 ± 0.07 %ID/g
  tissue uptake at 3 h: 0.09 ± 0.02 %ID/g
In vivo; Intestine uptake
  tissue uptake at 1 h: 0.3 ± 0.07 %ID/g
  tissue uptake at 3 h: 0.18 ± 0.04 %ID/g
In vivo; Kidneys uptake
  tissue uptake at 1 h: 6.79 ± 4.91 %ID/g
  tissue uptake at 3 h: 2.33 ± 1.02 %ID/g
In vivo; Lacrimal uptake
  tissue uptake at 1 h: 0.1 ± 0.03 %ID/g
  tissue uptake at 3 h: 0.21 ± 0.2 %ID/g
In vivo; Liver uptake
  tissue uptake at 1 h: 0.35 ± 0.17 %ID/g
  tissue uptake at 3 h: 0.13 ± 0.02 %ID/g
In vivo; Lungs uptake
  tissue uptake at 1 h: 0.82 ± 0.37 %ID/g
  tissue uptake at 3 h: 0.22 ± 0.05 %ID/g
In vivo; Muscle uptake
  tissue uptake at 1 h: 0.14 ± 0.04 %ID/g
  tissue uptake at 3 h: 0.05 ± 0.02 %ID/g
In vivo; Pancreas uptake
  tissue uptake at 1 h: 0.17 ± 0.03 %ID/g
  tissue uptake at 3 h: 0.06 ± 0.02 %ID/g
In vivo; Salivary uptake
  tissue uptake at 1 h: 0.23 ± 0.05 %ID/g
  tissue uptake at 3 h: 0.15 ± 0.13 %ID/g
In vivo; Seminal uptake
  tissue uptake at 1 h: 6.46 ± 7.52 %ID/g
  tissue uptake at 3 h: 1.19 ± 1.04 %ID/g
In vivo; Spleen uptake
  tissue uptake at 1 h: 0.37 ± 0.12 %ID/g
  tissue uptake at 3 h: 0.24 ± 0.07 %ID/g
In vivo; Stomach uptake
  tissue uptake at 1 h: 0.09 ± 0.04 %ID/g
  tissue uptake at 3 h: 0.03 ± 0.01 %ID/g
In vivo; Tail uptake
  tissue uptake at 1 h: 0.86 ± 0.47 %ID/g
  tissue uptake at 3 h: 0.13 ± 0.06 %ID/g
In vivo; Testes uptake
  tissue uptake at 1 h: 0.38 ± 0.16 %ID/g
  tissue uptake at 3 h: 0.11 ± 0.03 %ID/g
In vivo; Thyroid uptake
  tissue uptake at 1 h: 0.29 ± 0.08 %ID/g
  tissue uptake at 3 h: 0.1 ± 0.04 %ID/g
In vivo; Tumor uptake
  tissue uptake at 1 h: 22.1 ± 13.9 %ID/g
  tissue uptake at 3 h: 33.5 ± 10.7 %ID/g
In vivo; Urine uptake
  excreta dose per gram or mL at 1 h: 336 ± 127 %ID/g
  excreta dose per gram or mL at 3 h: 148 ± 102 %ID/g

## O=C(O)C[C@H](NC(=O)N[C@@H](CCCCNC(=O)[C@H](Cc1c2ccccc2cc2ccccc12)NC(=O)[C@H]1CC[C@H](CNC(=O)CN2CCN(CC(=O)O)CCN(CC(=O)O)CCN(CC(=O)O)CC2)CC1)C(=O)O)C(=O)O [68Ga-HTK03161, metal not drawn]
[2]
  Blood: Salivary ratio: 5.08 ± 0.62
  Tumor: Blood ratio: 11.4 ± 1.73
  Tumor: Kidney ratio: 3.03 ± 0.84
  Tumor: Muscle ratio: 89.4 ± 36.1
  Tumor: Salivary ratio: 57.2 ± 7.11
In vivo; Adrenal glands uptake
  tissue uptake at 1 h: 0.41 ± 0.07 %ID/g
In vivo; Blood uptake
  tissue uptake at 1 h: 1.13 ± 0.19 %ID/g
In vivo; Bone uptake
  tissue uptake at 1 h: 0.11 ± 0.02 %ID/g
In vivo; Brain uptake
  tissue uptake at 1 h: 0.02 %ID/g
In vivo; Fat uptake
  tissue uptake at 1 h: 0.15 ± 0.04 %ID/g
In vivo; Heart uptake
  tissue uptake at 1 h: 0.32 ± 0.05 %ID/g
In vivo; Intestine uptake
  tissue uptake at 1 h: 0.31 ± 0.09 %ID/g
In vivo; Kidneys uptake
  tissue uptake at 1 h: 4.41 ± 1.26 %ID/g
In vivo; Lacrimal uptake
  tissue uptake at 1 h: 0.12 ± 0.06 %ID/g
In vivo; Liver uptake
  tissue uptake at 1 h: 0.28 ± 0.05 %ID/g
In vivo; Lungs uptake
  tissue uptake at 1 h: 0.75 ± 0.13 %ID/g
In vivo; Muscle uptake
  tissue uptake at 1 h: 0.15 ± 0.04 %ID/g
In vivo; Pancreas uptake
  tissue uptake at 1 h: 0.18 ± 0.03 %ID/g
In vivo; Salivary uptake
  tissue uptake at 1 h: 0.23 ± 0.05 %ID/g
In vivo; Seminal uptake
  tissue uptake at 1 h: 6.22 ± 12.2 %ID/g
In vivo; Spleen uptake
  tissue uptake at 1 h: 0.27 ± 0.06 %ID/g
In vivo; Stomach uptake
  tissue uptake at 1 h: 0.1 ± 0.04 %ID/g
In vivo; Tail uptake
  tissue uptake at 1 h: 0.55 ± 0.1 %ID/g
In vivo; Testes uptake
  tissue uptake at 1 h: 0.54 ± 0.51 %ID/g
In vivo; Thyroid uptake
  tissue uptake at 1 h: 0.29 ± 0.05 %ID/g
In vivo; Tumor uptake
  tissue uptake at 1 h: 12.7 ± 1.91 %ID/g
In vivo; Urine uptake
  excreta dose per gram or mL at 1 h: 363 ± 155 %ID/g

## O=C(O)CCC[C@H](NC(=O)N[C@@H](CCCCNC(=O)[C@H](Cc1c2ccccc2cc2ccccc12)NC(=O)Cc1cccc(CNC(=O)CN2CCN(CC(=O)O)CCN(CC(=O)O)CCN(CC(=O)O)CC2)c1)C(=O)O)C(=O)O [68Ga-HTK04037, metal not drawn]
[2]
  Blood: Salivary ratio: 3.55 ± 0.46
  Tumor: Blood ratio: 26.3 ± 10.5
  Tumor: Kidney ratio: 3.02 ± 1.22
  Tumor: Muscle ratio: 165 ± 52.9
  Tumor: Salivary ratio: 92.2 ± 34.5
In vivo; Adrenal glands uptake
  tissue uptake at 1 h: 0.19 ± 0.03 %ID/g
In vivo; Blood uptake
  tissue uptake at 1 h: 0.51 ± 0.12 %ID/g
In vivo; Bone uptake
  tissue uptake at 1 h: 0.07 ± 0.01 %ID/g
In vivo; Brain uptake
  tissue uptake at 1 h: 0.02 %ID/g
In vivo; Fat uptake
  tissue uptake at 1 h: 0.06 ± 0.01 %ID/g
In vivo; Heart uptake
  tissue uptake at 1 h: 0.15 ± 0.03 %ID/g
In vivo; Intestine uptake
  tissue uptake at 1 h: 0.28 ± 0.03 %ID/g
In vivo; Kidneys uptake
  tissue uptake at 1 h: 4.47 ± 0.9 %ID/g
In vivo; Lacrimal uptake
  tissue uptake at 1 h: 0.07 ± 0.04 %ID/g
In vivo; Liver uptake
  tissue uptake at 1 h: 0.2 ± 0.03 %ID/g
In vivo; Lungs uptake
  tissue uptake at 1 h: 0.46 ± 0.09 %ID/g
In vivo; Muscle uptake
  tissue uptake at 1 h: 0.08 ± 0.03 %ID/g
In vivo; Pancreas uptake
  tissue uptake at 1 h: 0.11 ± 0.01 %ID/g
In vivo; Salivary uptake
  tissue uptake at 1 h: 0.14 ± 0.03 %ID/g
In vivo; Seminal uptake
  tissue uptake at 1 h: 8.45 ± 10 %ID/g
In vivo; Spleen uptake
  tissue uptake at 1 h: 0.24 ± 0.05 %ID/g
In vivo; Stomach uptake
  tissue uptake at 1 h: 0.12 ± 0.05 %ID/g
In vivo; Tail uptake
  tissue uptake at 1 h: 0.41 ± 0.16 %ID/g
In vivo; Testes uptake
  tissue uptake at 1 h: 0.18 ± 0.04 %ID/g
In vivo; Thyroid uptake
  tissue uptake at 1 h: 0.16 ± 0.03 %ID/g
In vivo; Tumor uptake
  tissue uptake at 1 h: 13.1 ± 4.69 %ID/g
In vivo; Urine uptake
  excreta dose per gram or mL at 1 h: 396 ± 114 %ID/g
